Measurements as given in patent US20210139548A1 (published 2021).
*1 amine or outer side, *2 acyl side, *3 side chain or, on linkers, in order; H or OH if unused. Side-chain parts run from the residue outwards. The star is where a group is joined. C18 diacid = O=C(O)CCCCCCCCCCCCCCCCC(=O)*; γGlu = O=C(O)[C@H](CCC(=O)[*:2])N[*:1]; Isovaleryl = CC(C)CC(=O)*; AEEA = NCCOCCOCC(=O)O

T1: human neuropeptide Y2 receptor (human, UniProt P49146 1-381)
T1 construct: whole, on cells; also called hNPY2 receptor; hNPY2-R
T1 sequence (looked up): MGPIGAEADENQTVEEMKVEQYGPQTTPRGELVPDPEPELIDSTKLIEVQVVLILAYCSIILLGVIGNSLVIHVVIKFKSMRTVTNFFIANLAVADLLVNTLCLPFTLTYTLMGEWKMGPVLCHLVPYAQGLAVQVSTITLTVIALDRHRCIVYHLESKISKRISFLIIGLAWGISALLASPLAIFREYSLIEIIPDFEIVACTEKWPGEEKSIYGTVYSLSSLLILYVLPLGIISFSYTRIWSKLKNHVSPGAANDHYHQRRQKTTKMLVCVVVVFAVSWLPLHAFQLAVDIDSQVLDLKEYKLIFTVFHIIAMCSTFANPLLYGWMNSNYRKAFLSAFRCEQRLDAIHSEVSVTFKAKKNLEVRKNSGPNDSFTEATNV

T2: human NPY1 receptor (human, UniProt P25929 1-384)
T2 sequence (looked up): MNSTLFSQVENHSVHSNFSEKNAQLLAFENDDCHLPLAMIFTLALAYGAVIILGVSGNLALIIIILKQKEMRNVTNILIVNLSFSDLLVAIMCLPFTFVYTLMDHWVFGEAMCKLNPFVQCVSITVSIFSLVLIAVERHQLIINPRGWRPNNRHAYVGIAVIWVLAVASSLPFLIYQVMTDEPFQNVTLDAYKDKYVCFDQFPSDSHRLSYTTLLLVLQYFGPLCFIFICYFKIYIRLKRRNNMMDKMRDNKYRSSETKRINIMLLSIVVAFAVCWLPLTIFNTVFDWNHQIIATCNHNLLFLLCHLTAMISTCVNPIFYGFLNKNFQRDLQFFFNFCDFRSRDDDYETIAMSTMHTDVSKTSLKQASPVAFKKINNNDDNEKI

T3: human NPY5 receptor (human, UniProt Q15761 1-445)
T3 sequence (looked up): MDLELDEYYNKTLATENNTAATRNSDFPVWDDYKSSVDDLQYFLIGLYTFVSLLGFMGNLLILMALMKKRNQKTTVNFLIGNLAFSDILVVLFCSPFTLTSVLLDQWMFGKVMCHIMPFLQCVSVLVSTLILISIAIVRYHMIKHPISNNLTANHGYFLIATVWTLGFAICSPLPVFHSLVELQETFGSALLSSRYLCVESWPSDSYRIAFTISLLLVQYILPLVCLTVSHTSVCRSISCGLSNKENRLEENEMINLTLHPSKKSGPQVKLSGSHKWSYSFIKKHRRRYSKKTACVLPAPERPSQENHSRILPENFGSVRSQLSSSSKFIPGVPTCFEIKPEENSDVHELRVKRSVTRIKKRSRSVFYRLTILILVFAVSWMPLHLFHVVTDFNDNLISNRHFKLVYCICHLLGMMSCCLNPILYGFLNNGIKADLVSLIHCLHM


Key:
[1] = target: T1, human neuropeptide Y2 receptor; assay: radioligand competition (125I-PYY(1-36)), hNPY2R membranes
Summary of the method: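 Commercial human Y2 receptor membranes (0.5 μg protein/well) were incubated with peptide for 2 h at room temperature in 50 mM HEPES, 5 mM MgCl₂, 1 mM CaCl₂, pH 7.4, with 0.2% ovalbumin. Bound radioligand was separated on PEI-soaked GF/C filters and counted by scintillation, and IC₅₀ came from nonlinear sigmoidal regression.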

[2] = target: T1, human neuropeptide Y2 receptor; assay: RLB 6: apparent Ki of filtrate after incubation at pH 6.1-6.2
[3] = target: T1, human neuropeptide Y2 receptor; assay: radioligand competition (125I-PYY(1-36)), hY2R membranes; DMSO stock
Procedure: (§1) The filtration RLB assay was carried out in 96-well plates in a final volume of 100 μl per well. Freeze-dried test peptides were dissolved in 100% dimethyl sulfoxide (DMSO) to stock solutions of 1 mM and serial dilutions were performed in assay buffer (50 mM HEPES, 5 mM MgCl₂, 1 mM CaCl₂, pH 7.4) containing 0.2% ovalbumin. […] Next, 80 μL membranes (HTS066M, ChemiSCREEN™ Human Neuropeptide Y2 Receptor Membrane Preparation, CHEMICON) were added to each well to give a final protein concentration of 0.5 μg/well. The plates were sealed and incubated at room temperature for 2 hours in a plate shaker set at 400 rpm. The incubation was stopped by vacuum filtration onto 0.5% poly-ethylene amine (PEI) presoaked GF/C filters using a 96-well FilterMate™ harvester (Perkin Elmer) followed by four washes with 300 μl/well ice-cold wash buffer (50 mM HEPES, 500 mM NaCl, pH7.4). Filter plates were then dried for 60 min at room temperature and the bottom of the plates was sealed with backing tape UniFilter-96. Finally, 50 μl/well scintillation counter cocktail (Microscint20, Packard) was added and the radioactivity was counted in the Packard TopCount NXT scintillation counter. IC₅₀ values (the half maximal inhibitory concentration of the agonist) were calculated by nonlinear regression analysis of sigmoidal dose-response curves.

human NPY1 receptor = target: T2, human NPY1 receptor; assay: cell-based or functional assay
human NPY4 receptor = human NPY4 receptor (human, UniProt P50391 1-375); assay: cell-based or functional assay
[4] = target: T1, human neuropeptide Y2 receptor; assay: cell-based or functional assay
human NPY5 receptor = target: T3, human NPY5 receptor; assay: cell-based or functional assay
[5] = target: T1, human neuropeptide Y2 receptor; assay: RLB 7: apparent Ki of filtrate after incubation at pH 7.1-7.2
Procedure: as §1
Peptides (as TFA salts) were weighed out in a filter unit (Mini-UniPrep Syringeless Filter 0.45 μm, Whatman), and 0.1 M sodium diphosphate buffer at pH 6.4 or 7.4, respectively, or 0.2 M TRIS buffer at pH 8.3 was added to achieve 10 mg/ml final concentration. The peptide was (partially) dissolved by shaking the filter unit horizontally at approx. 400 rpm for 2 hours at room temperature. The sample was filtered to remove any insoluble particles.

Chain of human NPY4 receptor (P50391 whole entry): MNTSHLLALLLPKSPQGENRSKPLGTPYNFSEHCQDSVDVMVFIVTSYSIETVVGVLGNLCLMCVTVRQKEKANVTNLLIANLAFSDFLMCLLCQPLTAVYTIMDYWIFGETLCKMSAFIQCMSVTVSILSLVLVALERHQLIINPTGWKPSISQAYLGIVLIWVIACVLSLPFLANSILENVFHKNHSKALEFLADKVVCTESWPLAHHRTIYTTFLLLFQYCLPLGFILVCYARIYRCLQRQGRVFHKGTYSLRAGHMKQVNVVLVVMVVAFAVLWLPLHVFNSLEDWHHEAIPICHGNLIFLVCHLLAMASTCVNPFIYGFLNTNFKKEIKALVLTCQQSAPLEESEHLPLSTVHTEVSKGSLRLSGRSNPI

Row | Ki [1] | Ki [2] | Ki [3] | EC50 (HTRF cAMP Gi assay) (human NPY1 receptor) | EC50 (HTRF cAMP Gi assay) (human NPY4 receptor) | EC50 (HTRF cAMP Gi assay) [4] | EC50 (HTRF cAMP Gi assay) (human NPY5 receptor) | Ki [5] | Binder
1 | 1.19 nM | 6.6 nM | 3.5 nM | – | – | – | – | – | Isovaleryl-APEK([AEEA-AEEA-γGlu-C18 diacid])PEEDASPEEIQRYYVSLRHYYNWLTRQRY-NH2 [Compound 84]
2 | 6.94 nM | – | – | > 5000 nM | > 5000 nM | 0.284 nM | > 5000 nM | – | Isovaleryl-APEK([AEEA-AEEA-γGlu-C18 diacid])PEEDAEPEELQEYYVSLRHYYNWLTRQRY-NH2 (SMILES CC(C)CC(=O)N[C@@H](C)C(=O)N1CCC[C@H]1C(=O)N[C@@H](CCC(=O)O)C(=O)N[C@@H](CCCCNC(=O)COCCOCCNC(=O)COCCOCCNC(=O)CC[C@H](NC(=O)CCCCCCCCCCCCCCCCC(=O)O)C(=O)O)C(=O)N1CCC[C@H]1C(=O)N[C@@H](CCC(=O)O)C(=O)N[C@@H](CCC(=O)O)C(=O)N[C@@H](CC(=O)O)C(=O)N[C@@H](C)C(=O)N[C@@H](CCC(=O)O)C(=O)N1CCC[C@H]1C(=O)N[C@@H](CCC(=O)O)C(=O)N[C@@H](CCC(=O)O)C(=O)N[C@@H](CC(C)C)C(=O)N[C@@H](CCC(N)=O)C(=O)N[C@@H](CCC(=O)O)C(=O)N[C@@H](Cc1ccc(O)cc1)C(=O)N[C@@H](Cc1ccc(O)cc1)C(=O)N[C@H](C(=O)N[C@@H](CO)C(=O)N[C@@H](CC(C)C)C(=O)N[C@@H](CCCNC(=N)N)C(=O)N[C@@H](Cc1c[nH]cn1)C(=O)N[C@@H](Cc1ccc(O)cc1)C(=O)N[C@@H](Cc1ccc(O)cc1)C(=O)N[C@@H](CC(N)=O)C(=O)N[C@@H](Cc1c[nH]c2ccccc12)C(=O)N[C@@H](CC(C)C)C(=O)N[C@H](C(=O)N[C@@H](CCCNC(=N)N)C(=O)N[C@@H](CCC(N)=O)C(=O)N[C@@H](CCCNC(=N)N)C(=O)N[C@@H](Cc1ccc(O)cc1)C(N)=O)[C@@H](C)O)C(C)C) [Compound 105]
3 | 3.09 nM | – | – | > 5000 nM | > 5000 nM | 0.106 nM | > 5000 nM | – | Isovaleryl-APEK([AEEA-AEEA-γGlu-C18 diacid])PEEDAEPEELQRYYVSLRHYYNWLTRQRY-NH2 (SMILES CC(C)CC(=O)N[C@@H](C)C(=O)N1CCC[C@H]1C(=O)N[C@@H](CCC(=O)O)C(=O)N[C@@H](CCCCNC(=O)COCCOCCNC(=O)COCCOCCNC(=O)CC[C@H](NC(=O)CCCCCCCCCCCCCCCCC(=O)O)C(=O)O)C(=O)N1CCC[C@H]1C(=O)N[C@@H](CCC(=O)O)C(=O)N[C@@H](CCC(=O)O)C(=O)N[C@@H](CC(=O)O)C(=O)N[C@@H](C)C(=O)N[C@@H](CCC(=O)O)C(=O)N1CCC[C@H]1C(=O)N[C@@H](CCC(=O)O)C(=O)N[C@@H](CCC(=O)O)C(=O)N[C@@H](CC(C)C)C(=O)N[C@@H](CCC(N)=O)C(=O)N[C@@H](CCCNC(=N)N)C(=O)N[C@@H](Cc1ccc(O)cc1)C(=O)N[C@@H](Cc1ccc(O)cc1)C(=O)N[C@H](C(=O)N[C@@H](CO)C(=O)N[C@@H](CC(C)C)C(=O)N[C@@H](CCCNC(=N)N)C(=O)N[C@@H](Cc1c[nH]cn1)C(=O)N[C@@H](Cc1ccc(O)cc1)C(=O)N[C@@H](Cc1ccc(O)cc1)C(=O)N[C@@H](CC(N)=O)C(=O)N[C@@H](Cc1c[nH]c2ccccc12)C(=O)N[C@@H](CC(C)C)C(=O)N[C@H](C(=O)N[C@@H](CCCNC(=N)N)C(=O)N[C@@H](CCC(N)=O)C(=O)N[C@@H](CCCNC(=N)N)C(=O)N[C@@H](Cc1ccc(O)cc1)C(N)=O)[C@@H](C)O)C(C)C) [Compound 188]
4 | 1.96 nM | – | – | > 5000 nM | > 5000 nM | 0.107 nM | > 5000 nM | – | Isovaleryl-APEK([AEEA-AEEA-γGlu-C18 diacid])PEEDATPEELQKYYVSLRHYYNWLTRQRY-NH2 [Compound 231]
5 | 4.33 nM | – | – | > 5000 nM | > 5000 nM | 0.235 nM | > 5000 nM | – | Isovaleryl-APEK([AEEA-AEEA-γGlu-C18 diacid])PEEDASEEELQEYYVSLRHYYNWLTRQRY-NH2 (SMILES CC(C)CC(=O)N[C@@H](C)C(=O)N1CCC[C@H]1C(=O)N[C@@H](CCC(=O)O)C(=O)N[C@@H](CCCCNC(=O)COCCOCCNC(=O)COCCOCCNC(=O)CC[C@H](NC(=O)CCCCCCCCCCCCCCCCC(=O)O)C(=O)O)C(=O)N1CCC[C@H]1C(=O)N[C@@H](CCC(=O)O)C(=O)N[C@@H](CCC(=O)O)C(=O)N[C@@H](CC(=O)O)C(=O)N[C@@H](C)C(=O)N[C@@H](CO)C(=O)N[C@@H](CCC(=O)O)C(=O)N[C@@H](CCC(=O)O)C(=O)N[C@@H](CCC(=O)O)C(=O)N[C@@H](CC(C)C)C(=O)N[C@@H](CCC(N)=O)C(=O)N[C@@H](CCC(=O)O)C(=O)N[C@@H](Cc1ccc(O)cc1)C(=O)N[C@@H](Cc1ccc(O)cc1)C(=O)N[C@H](C(=O)N[C@@H](CO)C(=O)N[C@@H](CC(C)C)C(=O)N[C@@H](CCCNC(=N)N)C(=O)N[C@@H](Cc1c[nH]cn1)C(=O)N[C@@H](Cc1ccc(O)cc1)C(=O)N[C@@H](Cc1ccc(O)cc1)C(=O)N[C@@H](CC(N)=O)C(=O)N[C@@H](Cc1c[nH]c2ccccc12)C(=O)N[C@@H](CC(C)C)C(=O)N[C@H](C(=O)N[C@@H](CCCNC(=N)N)C(=O)N[C@@H](CCC(N)=O)C(=O)N[C@@H](CCCNC(=N)N)C(=O)N[C@@H](Cc1ccc(O)cc1)C(N)=O)[C@@H](C)O)C(C)C) [Compound 164]
6 | 0.75 nM | 4.6 nM | 3 nM | – | – | – | – | 11.1 nM | Isovaleryl-APAK([AEEA-AEEA-γGlu-C18 diacid])PEEDASPEELQRYYVSLRHYYNWLTRQRY-NH2 [Compound 203]
